Test results published in IntAct's records for PubMed 31515488.

B1: Cyclin-D1-binding protein 1 (Homo sapiens), O95273 (parent)
chain: MASATAPAAAVPTLASPLEQLRHLAEELRLLLPRVRVGEAQETTEEFNREMFWRRLNEAAVTVSREATTLTIVFSQLPLPSPQETQKFCEQVHAAIKAFIAVYYLLPKDQGITLRKLVRGATLDIVDGMAQLMEVLSVTPTQSPENNDLISYNSVWVACQQMPQIPRDNKAAALLMLTKNVDFVKDAHEEMEQAVEECDPYSGLLNDTEENNSDNHNHEDDVLGFPSNQDLYWSEDDQELIIPCLALVRASKACLKKIRMLVAENGKKDQVAQLDDIVDISDEISPSVDDLALSIYPPMCHLTVRINSAKLVSVLKKALEITKASHVTPQPEDSWIPLLINAIDHCMNRIKELTQSELEL
B2: Fanconi anemia group G protein (Homo sapiens), O15287 (parent)
chain: MSRQTTSVGSSCLDLWREKNDRLVRQAKVAQNSGLTLRRQQLAQDALEGLRGLLHSLQGLPAAVPVLPLELTVTCNFIILRASLAQGFTEDQAQDIQRSLERVLETQEQQGPRLEQGLRELWDSVLRASCLLPELLSALHRLVGLQAALWLSADRLGDLALLLETLNGSQSGASKDLLLLLKTWSPPAEELDAPLTLQDAQGLKDVLLTAFAYRQGLQELITGNPDKALSSLHEAASGLCPRPVLVQVYTALGSCHRKMGNPQRALLYLVAALKEGSAWGPPLLEASRLYQQLGDTTAELESLELLVEALNVPCSSKAPQFLIEVELLLPPPDLASPLHCGTQSQTKHILASRCLQTGRAGDAAEHYLDLLALLLDSSEPRFSPPPSPPGPCMPEVFLEAAVALIQAGRAQDALTLCEELLSRTSSLLPKMSRLWEDARKGTKELPYCPLWVSATHLLQGQAWVQLGAQKVAISEFSRCLELLFRATPEEKEQGAAFNCEQGCKSDAALQQLRAAALISRGLEWVASGQDTKALQDFLLSVQMCPGNRDTYFHLLQTLKRLDRRDEATALWWRLEAQTKGSHEDALWSLPLYLESYLSWIRPSDRDAFLEEFRTSLPKSCDL

Variants of: B1
Conditions: with ezh1_human EZH1, Q92800
ezh1_human EZH1, Q92800, sequence (Q92800 whole entry): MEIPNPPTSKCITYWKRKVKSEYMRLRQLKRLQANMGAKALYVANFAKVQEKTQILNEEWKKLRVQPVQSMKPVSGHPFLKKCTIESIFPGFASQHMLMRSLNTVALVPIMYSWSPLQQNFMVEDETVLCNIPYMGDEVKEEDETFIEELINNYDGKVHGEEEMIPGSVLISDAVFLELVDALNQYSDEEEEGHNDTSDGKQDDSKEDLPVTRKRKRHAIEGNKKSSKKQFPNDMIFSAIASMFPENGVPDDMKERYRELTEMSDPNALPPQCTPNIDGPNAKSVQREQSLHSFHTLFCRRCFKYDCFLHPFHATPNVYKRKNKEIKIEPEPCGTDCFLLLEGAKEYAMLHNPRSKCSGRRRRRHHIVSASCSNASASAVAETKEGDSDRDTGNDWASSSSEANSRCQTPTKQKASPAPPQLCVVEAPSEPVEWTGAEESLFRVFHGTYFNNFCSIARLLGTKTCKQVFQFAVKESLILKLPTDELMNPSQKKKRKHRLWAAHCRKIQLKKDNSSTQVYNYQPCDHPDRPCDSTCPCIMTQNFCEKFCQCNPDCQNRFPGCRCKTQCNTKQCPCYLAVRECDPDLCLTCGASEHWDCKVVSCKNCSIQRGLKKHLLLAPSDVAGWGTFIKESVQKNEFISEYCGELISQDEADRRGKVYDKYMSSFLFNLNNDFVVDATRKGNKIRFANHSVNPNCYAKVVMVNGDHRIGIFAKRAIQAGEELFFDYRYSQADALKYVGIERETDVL

Q: Which “effect of a mutation on the interaction” value does the source give for I277T here?
A: disrupting interaction strength

Variants of: B1
Conditions: with pex39_human PEX39, Q5I0X4
pex39_human PEX39, Q5I0X4, sequence (Q5I0X4 whole entry): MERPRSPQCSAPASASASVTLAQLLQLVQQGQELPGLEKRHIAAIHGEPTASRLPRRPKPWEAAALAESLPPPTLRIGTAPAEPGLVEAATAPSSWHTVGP

Q: I277T was tested. Which “effect of a mutation on the interaction” value did it give?
A: disrupting interaction strength

Variants of: B1
Conditions: with evg1_human C22orf23, Q9BZE7
evg1_human C22orf23, Q9BZE7, sequence (Q9BZE7 whole entry): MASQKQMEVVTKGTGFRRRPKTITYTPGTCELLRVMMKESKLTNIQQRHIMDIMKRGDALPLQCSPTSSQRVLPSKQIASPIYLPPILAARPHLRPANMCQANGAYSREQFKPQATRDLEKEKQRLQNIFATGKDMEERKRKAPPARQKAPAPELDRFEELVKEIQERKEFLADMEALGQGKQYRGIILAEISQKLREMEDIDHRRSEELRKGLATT

Q: For I277T, which “effect of a mutation on the interaction” value is on record?
A: disrupting interaction strength

Variants of: B1
Conditions: with map7_human MAP7, Q14244

Q: For I277T, which “effect of a mutation on the interaction” value is on record?
A: disrupting interaction strength

Variants of: B1
Conditions: with myp2_human PMP2, P02689

Q: Which “effect of a mutation on the interaction” value does the source give for I277T here?
A: disrupting interaction strength

Variants of: B1
Conditions: with rl39l_human RPL39L

Q: Which “effect of a mutation on the interaction” value does the source give for I277T here?
A: disrupting interaction strength

Variants of: B1
Conditions: with zn707_human ZNF707, Q96C28

Q: Which “effect of a mutation on the interaction” value does the source give for I277T here?
A: disrupting interaction strength

Variants of: B1
Conditions: with bmp7_human BMP7, P18075
bmp7_human BMP7, P18075, sequence (P18075 whole entry): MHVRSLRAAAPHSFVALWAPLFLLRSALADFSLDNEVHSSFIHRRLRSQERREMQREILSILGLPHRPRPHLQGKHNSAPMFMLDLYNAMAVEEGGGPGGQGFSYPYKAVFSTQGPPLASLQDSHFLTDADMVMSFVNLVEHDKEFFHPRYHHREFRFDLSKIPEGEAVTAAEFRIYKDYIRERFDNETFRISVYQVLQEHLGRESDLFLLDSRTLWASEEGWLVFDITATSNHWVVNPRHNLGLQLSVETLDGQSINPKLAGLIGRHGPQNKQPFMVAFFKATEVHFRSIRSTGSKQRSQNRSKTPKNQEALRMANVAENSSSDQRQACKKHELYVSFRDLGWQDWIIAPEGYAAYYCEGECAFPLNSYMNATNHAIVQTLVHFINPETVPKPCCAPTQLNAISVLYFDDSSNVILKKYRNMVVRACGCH

Q: How did the “effect of a mutation on the interaction” value turn out when I277T was run?
A: disrupting interaction strength

Variants of: B1
Conditions: with zn136_human ZNF136, P52737
zn136_human ZNF136, P52737, sequence (P52737 whole entry): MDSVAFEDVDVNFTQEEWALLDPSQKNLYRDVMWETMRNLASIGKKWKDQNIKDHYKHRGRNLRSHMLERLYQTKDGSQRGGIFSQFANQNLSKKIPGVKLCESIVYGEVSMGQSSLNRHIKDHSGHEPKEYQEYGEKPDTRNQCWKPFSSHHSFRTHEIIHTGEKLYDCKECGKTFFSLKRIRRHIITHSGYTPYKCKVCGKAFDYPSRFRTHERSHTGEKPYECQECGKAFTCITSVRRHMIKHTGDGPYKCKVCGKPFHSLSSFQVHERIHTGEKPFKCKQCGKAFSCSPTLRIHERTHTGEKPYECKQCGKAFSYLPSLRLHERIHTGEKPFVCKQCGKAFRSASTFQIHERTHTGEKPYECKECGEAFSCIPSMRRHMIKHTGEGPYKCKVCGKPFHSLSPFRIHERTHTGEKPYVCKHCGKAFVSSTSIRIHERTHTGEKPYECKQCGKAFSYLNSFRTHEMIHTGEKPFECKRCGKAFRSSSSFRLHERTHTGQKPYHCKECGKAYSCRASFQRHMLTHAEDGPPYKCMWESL

Q: With I277T as the variant, how does the “effect of a mutation on the interaction” value read?
A: disrupting interaction strength

Variants of: B1
Conditions: with cul5_human CUL5, Q93034
cul5_human CUL5, Q93034, sequence (Q93034 whole entry): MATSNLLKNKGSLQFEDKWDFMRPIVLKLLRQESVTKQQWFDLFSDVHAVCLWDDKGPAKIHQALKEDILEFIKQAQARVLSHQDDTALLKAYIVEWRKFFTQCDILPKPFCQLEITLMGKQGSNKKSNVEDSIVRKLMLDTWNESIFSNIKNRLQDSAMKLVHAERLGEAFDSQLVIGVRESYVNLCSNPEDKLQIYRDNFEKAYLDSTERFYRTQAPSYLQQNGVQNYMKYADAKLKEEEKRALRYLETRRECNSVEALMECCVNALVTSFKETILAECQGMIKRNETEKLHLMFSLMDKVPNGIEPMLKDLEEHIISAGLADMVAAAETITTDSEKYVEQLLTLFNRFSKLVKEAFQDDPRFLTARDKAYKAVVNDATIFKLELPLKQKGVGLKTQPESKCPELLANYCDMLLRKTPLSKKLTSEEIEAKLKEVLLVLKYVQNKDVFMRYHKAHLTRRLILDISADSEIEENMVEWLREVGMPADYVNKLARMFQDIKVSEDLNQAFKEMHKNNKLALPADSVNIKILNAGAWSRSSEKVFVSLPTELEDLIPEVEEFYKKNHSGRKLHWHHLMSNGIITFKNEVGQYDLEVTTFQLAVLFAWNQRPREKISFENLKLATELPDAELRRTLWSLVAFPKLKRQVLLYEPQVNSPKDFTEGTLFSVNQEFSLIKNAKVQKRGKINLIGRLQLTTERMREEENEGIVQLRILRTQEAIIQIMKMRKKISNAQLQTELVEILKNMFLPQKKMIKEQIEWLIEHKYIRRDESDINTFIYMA

Q: With I277T as the variant, how does the “effect of a mutation on the interaction” value read?
A: disrupting interaction strength

Variants of: B1
Conditions: with zn555_human ZNF555, Q8NEP9
zn555_human ZNF555, Q8NEP9, sequence (Q8NEP9 whole entry): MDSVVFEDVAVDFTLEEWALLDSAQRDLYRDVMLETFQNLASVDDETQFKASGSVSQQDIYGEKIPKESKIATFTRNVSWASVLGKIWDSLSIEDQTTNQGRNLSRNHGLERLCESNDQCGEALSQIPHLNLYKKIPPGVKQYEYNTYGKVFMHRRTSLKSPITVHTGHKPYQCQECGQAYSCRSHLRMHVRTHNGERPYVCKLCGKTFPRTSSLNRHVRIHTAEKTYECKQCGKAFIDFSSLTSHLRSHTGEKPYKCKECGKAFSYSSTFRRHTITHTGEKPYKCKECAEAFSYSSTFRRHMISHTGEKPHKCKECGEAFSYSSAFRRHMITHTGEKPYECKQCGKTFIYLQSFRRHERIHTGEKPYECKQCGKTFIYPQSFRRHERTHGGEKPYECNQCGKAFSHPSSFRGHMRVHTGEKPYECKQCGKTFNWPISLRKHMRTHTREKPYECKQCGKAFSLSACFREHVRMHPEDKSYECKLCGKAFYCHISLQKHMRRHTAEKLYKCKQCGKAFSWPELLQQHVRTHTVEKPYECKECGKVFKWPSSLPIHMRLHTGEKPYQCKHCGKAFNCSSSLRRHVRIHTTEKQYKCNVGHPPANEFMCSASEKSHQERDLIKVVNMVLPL

Q: Which “effect of a mutation on the interaction” value does the source give for I277T here?
A: disrupting interaction strength

Variants of: B1
Conditions: with ilf2_human ILF2, Q12905

Q: I277T was tested. Which “effect of a mutation on the interaction” value did it give?
A: disrupting interaction strength

Variants of: B1
Conditions: with tnnt1_human TNNT1, P13805

Q: For I277T, which “effect of a mutation on the interaction” value is on record?
A: disrupting interaction strength

Variants of: B1
Conditions: with nano2_human NANOS2, P60321
nano2_human NANOS2, P60321, sequence (P60321 whole entry): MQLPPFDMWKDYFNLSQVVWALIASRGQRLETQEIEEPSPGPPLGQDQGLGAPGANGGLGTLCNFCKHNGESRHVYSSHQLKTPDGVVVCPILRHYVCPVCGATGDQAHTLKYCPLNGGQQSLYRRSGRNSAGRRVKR

Q: Which “effect of a mutation on the interaction” value does the source give for I277T here?
A: disrupting interaction strength

Variants of: B1
Conditions: with tha10_human THAP10, Q9P2Z0
tha10_human THAP10, Q9P2Z0, sequence (Q9P2Z0 whole entry): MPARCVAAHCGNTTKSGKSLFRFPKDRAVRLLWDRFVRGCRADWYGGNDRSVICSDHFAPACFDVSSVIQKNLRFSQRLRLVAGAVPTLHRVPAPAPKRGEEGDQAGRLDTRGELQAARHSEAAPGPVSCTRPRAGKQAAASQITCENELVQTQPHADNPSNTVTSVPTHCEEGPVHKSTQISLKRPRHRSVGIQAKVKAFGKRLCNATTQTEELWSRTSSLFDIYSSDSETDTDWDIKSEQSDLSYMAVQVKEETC

Q: Which “effect of a mutation on the interaction” value does the source give for I277T here?
A: disrupting interaction strength

Variants of: B1
Conditions: with tppc5_human TRAPPC5, Q8IUR0
tppc5_human TRAPPC5, Q8IUR0, sequence (Q8IUR0 whole entry): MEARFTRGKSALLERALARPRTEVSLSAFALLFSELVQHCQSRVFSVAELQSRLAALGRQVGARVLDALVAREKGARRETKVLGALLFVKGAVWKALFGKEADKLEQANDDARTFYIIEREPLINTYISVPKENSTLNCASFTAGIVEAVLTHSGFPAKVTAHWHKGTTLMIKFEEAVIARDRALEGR

Q: For I277T, which “effect of a mutation on the interaction” value is on record?
A: disrupting interaction strength

Variants of: B2
Conditions: with mbip1_human MBIP

Q: With S7F as the variant, how does the “effect of a mutation on the interaction” value read?
A: with no effect

Q: Which “effect of a mutation on the interaction” value does the source give for T297I here?
A: with no effect

Variants of: B2
Conditions: with KRT15, P19012
KRT15, P19012, sequence (P19012 whole entry): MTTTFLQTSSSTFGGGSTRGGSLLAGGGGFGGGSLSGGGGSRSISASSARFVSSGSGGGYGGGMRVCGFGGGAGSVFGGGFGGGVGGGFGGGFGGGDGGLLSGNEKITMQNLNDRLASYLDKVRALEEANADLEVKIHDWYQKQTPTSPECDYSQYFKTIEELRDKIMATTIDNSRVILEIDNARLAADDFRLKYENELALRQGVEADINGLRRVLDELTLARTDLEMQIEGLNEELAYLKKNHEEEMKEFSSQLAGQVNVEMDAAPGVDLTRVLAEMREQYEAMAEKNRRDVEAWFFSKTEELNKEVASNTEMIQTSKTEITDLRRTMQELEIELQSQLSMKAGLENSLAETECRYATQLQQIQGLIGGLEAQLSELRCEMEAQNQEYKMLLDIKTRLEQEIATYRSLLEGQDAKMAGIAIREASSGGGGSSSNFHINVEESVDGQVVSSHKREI

Q: With S7F as the variant, how does the “effect of a mutation on the interaction” value read?
A: with no effect

Q: Which “effect of a mutation on the interaction” value does the source give for T297I here?
A: with no effect

Variants of: B2
Conditions: with cenpr_human ITGB3BP

Q: S7F was tested. Which “effect of a mutation on the interaction” value did it give?
A: with no effect

Q: How did the “effect of a mutation on the interaction” value turn out when T297I was run?
A: with no effect

Variants of: B2
Conditions: with KRT19, P08727
KRT19, P08727, sequence (P08727 whole entry): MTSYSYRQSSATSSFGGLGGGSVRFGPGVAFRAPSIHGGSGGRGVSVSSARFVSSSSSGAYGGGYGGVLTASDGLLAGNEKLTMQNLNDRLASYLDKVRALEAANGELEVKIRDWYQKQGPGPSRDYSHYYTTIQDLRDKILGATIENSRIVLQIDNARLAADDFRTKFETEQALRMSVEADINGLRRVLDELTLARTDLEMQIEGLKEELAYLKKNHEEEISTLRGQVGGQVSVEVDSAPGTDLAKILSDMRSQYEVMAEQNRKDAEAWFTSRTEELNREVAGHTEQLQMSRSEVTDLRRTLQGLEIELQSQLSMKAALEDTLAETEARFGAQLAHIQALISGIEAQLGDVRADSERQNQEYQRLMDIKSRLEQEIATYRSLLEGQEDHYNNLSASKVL

Q: S7F was tested. Which “effect of a mutation on the interaction” value did it give?
A: with no effect

Q: With T297I as the variant, how does the “effect of a mutation on the interaction” value read?
A: with no effect
